Assay results from PMC11533527, “A yeast two-hybrid system to obtain triple-helical ligands from combinatorial random peptide libraries” (The Journal of Biological Chemistry, 2024).

Columns and labels:
[1] = molecular target: the molecule itself; assay: circular dichroism with thermal melting; peptides in PBS, heated at 95 °C, annealed at 4 °C overnight; [θ]225 followed from 4 to 85 °C; chains of one peptide forming a triple helix
[2] = molecular target: T1, glutathione S-transferase (GST)-PEDF-fusion protein (mouse, UniProt P97298 20-417); assay: ELISA; competitive ELISA: wells coated with 10 μg/ml collagen I; annealed peptides preincubated with 3 nM GST-PEDF for 10 min at room temperature in 20 mM HEPES-Na pH 7.4, 100 mM NaCl, 0.005% Tween 20; 90 min at 4 °C in the wells; HRP-anti-GST detection; settings: both partners purified
T1 construct: pigment epithelium-derived factor (PEDF); also called GST-fused PEDF; recombinant PEDF
T1 sequence (looked up): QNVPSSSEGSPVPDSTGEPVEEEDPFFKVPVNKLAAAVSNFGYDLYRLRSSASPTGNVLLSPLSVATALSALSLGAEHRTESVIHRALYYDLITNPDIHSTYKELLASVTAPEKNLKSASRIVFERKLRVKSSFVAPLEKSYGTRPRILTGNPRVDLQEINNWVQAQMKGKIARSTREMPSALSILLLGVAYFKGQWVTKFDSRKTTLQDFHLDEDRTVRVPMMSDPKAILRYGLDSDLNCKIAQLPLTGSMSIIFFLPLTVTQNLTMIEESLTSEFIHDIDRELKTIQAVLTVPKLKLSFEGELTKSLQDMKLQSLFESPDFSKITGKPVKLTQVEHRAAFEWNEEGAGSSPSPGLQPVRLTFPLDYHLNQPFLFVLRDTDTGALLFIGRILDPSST

B1: synthetic triple-helical peptide pep8 (peptide)
chain: YPPGPPGPPGPPGPRGPRGLLGLPGPPGPPGPPGPPG
HELM: PEPTIDE1{Y.P.[Hyp].G.P.[Hyp].G.P.[Hyp].G.P.[Hyp].G.P.R.G.P.R.G.L.L.G.L.[Hyp].G.P.[Hyp].G.P.[Hyp].G.P.[Hyp].G.P.[Hyp].G.[am]}$$$$V2.0; N-terminus assumed
SMILES: CC(C)C[C@H](NC(=O)CNC(=O)[C@H](CCCNC(=N)N)NC(=O)[C@@H]1CCCN1C(=O)CNC(=O)[C@H](CCCNC(=N)N)NC(=O)[C@@H]1CCCN1C(=O)CNC(=O)[C@@H]1C[C@@H](O)CN1C(=O)[C@@H]1CCCN1C(=O)CNC(=O)[C@@H]1C[C@@H](O)CN1C(=O)[C@@H]1CCCN1C(=O)CNC(=O)[C@@H]1C[C@@H](O)CN1C(=O)[C@@H]1CCCN1C(=O)CNC(=O)[C@@H]1C[C@@H](O)CN1C(=O)[C@@H]1CCCN1C(=O)[C@@H](N)Cc1ccc(O)cc1)C(=O)N[C@@H](CC(C)C)C(=O)NCC(=O)N[C@@H](CC(C)C)C(=O)N1C[C@H](O)C[C@H]1C(=O)NCC(=O)N1CCC[C@H]1C(=O)N1C[C@H](O)C[C@H]1C(=O)NCC(=O)N1CCC[C@H]1C(=O)N1C[C@H](O)C[C@H]1C(=O)NCC(=O)N1CCC[C@H]1C(=O)N1C[C@H](O)C[C@H]1C(=O)NCC(=O)N1CCC[C@H]1C(=O)N1C[C@H](O)C[C@H]1C(=O)NCC(N)=O
notes: Triple helix by CD; annealed before use; source: synthetic peptide (Fmoc solid phase, RP-HPLC purified)
binding result [1]: binds | IC50 [2]: > 10 µM
